{"source": "paper PMC9313797", "assay_in_all_cases": "ELISA", "key": {"FV712‐1487": {"molecular_target": "FV712‐1487"}, "FV712‐1490": {"molecular_target": "FV712‐1490"}, "FV712‐1478": {"molecular_target": "FV712‐1478"}, "FV712‐1481": {"molecular_target": "FV712‐1481"}, "FV712‐1484": {"molecular_target": "FV712‐1484"}}}
{"substance": "Recombinant tissue factor pathway inhibitor alpha (TFPIα) (from UniProt P10646-1 29-304) (natural protein)", "values": [{"measurement": "Kd", "setting": "FV712‐1487", "value": 0.6, "unit": "nM"}, {"measurement": "Kd", "setting": "FV712‐1490", "value": 1, "unit": "nM"}, {"measurement": "Kd", "setting": "FV712‐1478", "value": 0.2, "unit": "nM"}, {"measurement": "Kd", "setting": "FV712‐1481", "value": 0.2, "unit": "nM"}, {"measurement": "Kd", "setting": "FV712‐1484", "value": 0.6, "unit": "nM"}]}
